In the Human Domainome abundance scans (Beltran et al. 2025):
± gives the uncertainty stated by the source.

B1: Receptor-interacting serine/threonine-protein kinase 2, residues 438 to 518; numbered along this chain, O43353 (parent)
chain: QWIQSKREDIVNQMTEACLNQSLDALLSRDLIMKEDYELVSTKPTRTSKVRQLLDTTDIQGEEFAKVIVQKLKDNKQMGLQ

Variants of: B1
Assay: abundance fitness (aPCA) (normalised: wild type 0, dead -1); higher = more abundant; growth selection in yeast, the domain comes from the species named
Settings: Homo sapiens

Variant | abundance fitness
QWIQSKREDIVNQMTEACLNQSLDALLSRDLIMKEDYELVSTKPTRTSKVRQLLDTTDIQGEEFAKVIVEKLKDNKQMGLQ [Q70E] | 0.08 ± 0.15
QWIQSKREDIVNQMTEACLNQSLDALLSRDLIMKEDYELVSFKPTRTSKVRQLLDTTDIQGEEFAKVIVQKLKDNKQMGLQ [T42F] | -0.243 ± 0.086
QWIQSKREDIVNQMTEACLNQALDALLSRDLIMKEDYELVSTKPTRTSKVRQLLDTTDIQGEEFAKVIVQKLKDNKQMGLQ [S22A] | 0.066 ± 0.051
QWIQSKREDIVNQMTEACLNDSLDALLSRDLIMKEDYELVSTKPTRTSKVRQLLDTTDIQGEEFAKVIVQKLKDNKQMGLQ [Q21D] | 0.183 ± 0.11
QWIQSKREDIVIQMTEACLNQSLDALLSRDLIMKEDYELVSTKPTRTSKVRQLLDTTDIQGEEFAKVIVQKLKDNKQMGLQ [N12I] | -0.486 ± 0.21
QWIQSKREDIVCQMTEACLNQSLDALLSRDLIMKEDYELVSTKPTRTSKVRQLLDTTDIQGEEFAKVIVQKLKDNKQMGLQ [N12C] | -0.028 ± 0.1
QWIQSKREDIVMQMTEACLNQSLDALLSRDLIMKEDYELVSTKPTRTSKVRQLLDTTDIQGEEFAKVIVQKLKDNKQMGLQ [N12M] | -0.002 ± 0.19
QWIQSKREDKVNQMTEACLNQSLDALLSRDLIMKEDYELVSTKPTRTSKVRQLLDTTDIQGEEFAKVIVQKLKDNKQMGLQ [I10K] | -0.619 ± 0.16
QWIQSKREDIVNQMTSACLNQSLDALLSRDLIMKEDYELVSTKPTRTSKVRQLLDTTDIQGEEFAKVIVQKLKDNKQMGLQ [E16S] | -0.272 ± 0.061
QWIQSKREDIVNQMTEACLNQSLDALLSRDLIMKEDYELVSTKPTRTSKVRQLLDTTDIQGEEYAKVIVQKLKDNKQMGLQ [F64Y] | -0.448 ± 0.17
QWIQSKREDIVNQMTEACLNQSLDALLSRDLIMKEDYELVSTKPTPTSKVRQLLDTTDIQGEEFAKVIVQKLKDNKQMGLQ [R46P] | -0.519 ± 0.1
QKIQSKREDIVNQMTEACLNQSLDALLSRDLIMKEDYELVSTKPTRTSKVRQLLDTTDIQGEEFAKVIVQKLKDNKQMGLQ [W2K] | -0.435 ± 0.14
QRIQSKREDIVNQMTEACLNQSLDALLSRDLIMKEDYELVSTKPTRTSKVRQLLDTTDIQGEEFAKVIVQKLKDNKQMGLQ [W2R] | -0.41 ± 0.088
QWIQSKREDIVNQMTEACLNQSLDALLSRDLIMKEDYELDSTKPTRTSKVRQLLDTTDIQGEEFAKVIVQKLKDNKQMGLQ [V40D] | -0.754 ± 0.23
QWIQRKREDIVNQMTEACLNQSLDALLSRDLIMKEDYELVSTKPTRTSKVRQLLDTTDIQGEEFAKVIVQKLKDNKQMGLQ [S5R] | -0.125 ± 0.16
QWIQSKREDIVNQMTEACLNQSLDALLSRDLIMKEDYELVSTKPRRTSKVRQLLDTTDIQGEEFAKVIVQKLKDNKQMGLQ [T45R] | -0.879 ± 0.07
QWIQSKREDIQNQMTEACLNQSLDALLSRDLIMKEDYELVSTKPTRTSKVRQLLDTTDIQGEEFAKVIVQKLKDNKQMGLQ [V11Q] | -0.776 ± 0.21

Variant | abundance fitness
QWIQSKREDIVNQMTEACLNQSLDALLSRDLIMKEDYELVSTKPTRTSKVRQLLDTTDIQGEEFAKVIVQKLKDNRQMGLQ [K76R] | -0.192 ± 0.065
QWIQSKREDIVNQMTEACLNQSLDALLSRDLIMKEDYELVSTKPTRTSKVRQLLDTTDIQGEEFAKVIVQKLKDNGQMGLQ [K76G] | 0.066 ± 0.057
QWIQSKREDIVNQMTEACLNQSLDALLSRDLIMKEDYELVSTKPTRTSKVRQLLDTTDIQGEEFAKVIVQKLKDNSQMGLQ [K76S] | 0.032 ± 0.071
QWIQSKREDIVNQMTEACLNQSLDALLSRDLIMKEDYELVSTKPTRTSKVRQLLDTTDIQGEEFADVIVQKLKDNKQMGLQ [K66D] | -0.401 ± 0.2
QWIQSKRCDIVNQMTEACLNQSLDALLSRDLIMKEDYELVSTKPTRTSKVRQLLDTTDIQGEEFAKVIVQKLKDNKQMGLQ [E8C] | -0.994 ± 0.41
QWIQSKREDIVNQMTEACLNQSLDALLIRDLIMKEDYELVSTKPTRTSKVRQLLDTTDIQGEEFAKVIVQKLKDNKQMGLQ [S28I] | -0.475 ± 0.2
QWIQSKREDIVNQMTEACLNQSLDALLSRDLIMGEDYELVSTKPTRTSKVRQLLDTTDIQGEEFAKVIVQKLKDNKQMGLQ [K34G] | -0.357 ± 0.091
QWIQSKREDIVNQMTEACLNQSLDALLSRDLIMKEDYELVSTKPTRTSKVRQLLDTTDIQGEEFAKVTVQKLKDNKQMGLQ [I68T] | -0.345 ± 0.095
QWIQSKREDIVNQMTEACLNQSLDALLSRDLIMKEDYELVSTKPTRTSKVRQLLDTTDIQGEEFAKVSVQKLKDNKQMGLQ [I68S] | -0.491 ± 0.073
QWIQSKREDIVNQMTEACLNQSLDALLSRDLIMKEDYELVSTKPTRTSKVRQLLDTTDIQGEEFVKVIVQKLKDNKQMGLQ [A65V] | -0.933 ± 0.1
QWIQSKREDIVNQMTEACLNQSLDALLSRDLIMKEDYELVSTKPTRTSKVRQLLDTTDIQGEEFNKVIVQKLKDNKQMGLQ [A65N] | -0.389 ± 0.18
QWIQSKREDIVNQMTEACLNQSLDALLSRDLIMKEDYELVSTKPTRTSKVRQLLDTTDIQGEEFDKVIVQKLKDNKQMGLQ [A65D] | -0.569 ± 0.13
QWIQSKREDIVNRMTEACLNQSLDALLSRDLIMKEDYELVSTKPTRTSKVRQLLDTTDIQGEEFAKVIVQKLKDNKQMGLQ [Q13R] | -0.527 ± 0.18
QWIQSKCEDIVNQMTEACLNQSLDALLSRDLIMKEDYELVSTKPTRTSKVRQLLDTTDIQGEEFAKVIVQKLKDNKQMGLQ [R7C] | -1.04 ± 0.31
QWIQSKREDIVNQMTEACLNQSLDALLSRQLIMKEDYELVSTKPTRTSKVRQLLDTTDIQGEEFAKVIVQKLKDNKQMGLQ [D30Q] | -0.073 ± 0.077
QWIQSKREDIVNQMTEACLNQSLDALLSRMLIMKEDYELVSTKPTRTSKVRQLLDTTDIQGEEFAKVIVQKLKDNKQMGLQ [D30M] | -0.814 ± 0.16
QWIQSKREDIVNQMTEACLNQSLDALLSRDLIMKEDYELVSTKPTRTSKVRQLLDTTDGQGEEFAKVIVQKLKDNKQMGLQ [I59G] | 0.143 ± 0.29
